The test deals with GST–BIR3 fusion protein (XIAP BIR3 domain). Description: FMAT bead-based fluorescence competition assay.

Some results are limits rather than exact numbers.

In the case of “Smac N-terminal tripeptide AVP (compound 5)”, the IC50 – broadly, the concentration needed to halve the response being measured – was greater than 10 µM.

The values are drawn from article PMC2710984.
